What all share (settings): Human immunodeficiency virus 1
The test system of series [1] is Cc1cn([C@H]2C[C@H](O)[C@@H](COP(=O)(O)OP(=O)(O)OP(=O)(O)O)O2)c(=O)[nH]c1=O. In words: Activity of HIV1 Reverse transcriptase M184V mutant.
For series [2] the test system is unchanged. In words: Ratio of Kcat to Km for HIV1 Reverse transcriptase M184V mutant.
Series [3] has the same test system. In words: Activity of HIV1 Reverse transcriptase P119S mutant.
For series [4] the test system is unchanged. In words: Ratio of Kcat to Km for HIV1 Reverse transcriptase P119S mutant.
Series [5] has the same test system. The series can be described thus: Activity of HIV1 Reverse transcriptase P119S/M184V mutant.
For series [6] the test system is unchanged. The series can be described thus: Ratio of Kcat to Km for HIV1 Reverse transcriptase P119S/M184V mutant.
For series [7] the test system is unchanged. In words: Activity of HIV1 Reverse transcriptase P119S/T165A mutant.
Series [8] has the same test system. In words: Ratio of Kcat to Km for HIV1 Reverse transcriptase P119S/T165A mutant.
Series [9] has the same test system. The series can be described thus: Activity of HIV1 Reverse transcriptase P119S/T165A/M184V mutant.
For series [10] the test system is unchanged. The series can be described thus: Ratio of Kcat to Km for HIV1 Reverse transcriptase P119S/T165A/M184V mutant.
For series [11] the test system is unchanged. The series can be described thus: Activity of HIV1 Reverse transcriptase T165A mutant.
The test system is the same in series [12]. The series can be described thus: Ratio of Kcat to Km for HIV1 Reverse transcriptase T165A mutant.
Series [13] shares this test system. In words: Activity of HIV1 Reverse transcriptase T165A/M184V mutant.
Series [14] shares this test system. The series can be described thus: Ratio of Kcat to Km for HIV1 Reverse transcriptase T165A/M184V mutant.

Take “Human immunodeficiency virus type 1 reverse transcriptase (Human immunodeficiency virus 1) (from UniProt Q72547) M184V”: the kcat in series [1] was found to be 3.1 ×10⁻⁴ /s. Further, the kcat/Km (10'-2/microM/s) in series [2] was 2.6.

“Human immunodeficiency virus type 1 reverse transcriptase (Human immunodeficiency virus 1) (from UniProt Q72547) P119S”: in [3], the Michaelis constant (Km) was found to be 0.13 µM and the kcat turned out to be 3.3 ×10⁻⁴ /s. Also, the kcat/Km (10'-2/microM/s) in series [4] amounted to 2.5.

In the case of “Human immunodeficiency virus type 1 reverse transcriptase (Human immunodeficiency virus 1) (from UniProt Q72547) P119S,M184V”, in series [5], the Km turned out to be 0.18 µM and the kcat is 4 ×10⁻⁵ /s. Further, the kcat/Km (10'-2/microM/s) in [6] came to 2.2.

On to “Human immunodeficiency virus type 1 reverse transcriptase (Human immunodeficiency virus 1) (from UniProt Q72547) P119S,T165A”, for which, in series [7], the Km was 0.07 µM and the kcat stood at 3.6 ×10⁻⁴ /s. The kcat/Km (10'-2/microM/s) in series [8] worked out at 5.1.

For the substance “Human immunodeficiency virus type 1 reverse transcriptase (Human immunodeficiency virus 1) (from UniProt Q72547) P119S,T165A,M184V”, in [9], the Km was 0.15 µM and the kcat worked out at 9 ×10⁻⁵ /s. For the same substance, in [10], the kcat/Km (10'-3/microM/s) was found to be 6.

With “Human immunodeficiency virus type 1 reverse transcriptase (Human immunodeficiency virus 1) (from UniProt Q72547) T165A”, in series [11], the Km came to 0.1 µM and the kcat was 2.7 ×10⁻⁵ /s. Further, the kcat/Km (10'-2/microM/s) in series [12] came out at 2.7.

As to “Human immunodeficiency virus type 1 reverse transcriptase (Human immunodeficiency virus 1) (from UniProt Q72547) T165A,M184V”, the kcat in series [13] worked out at 1.4 ×10⁻⁵ /s. Also, in series [14], the kcat/Km (10'-2/microM/s) is 1.3.

Usually Km stands for the concentration of substrate that gives half-maximal velocity.

For the origin of these results see ChEMBL document CHEMBL1649255, “Impact of novel human immunodeficiency virus type 1 reverse transcriptase mutations P119S and T165A on 4'-ethynylthymidine analog resistance profile” (Antimicrob Agents Chemother, 2009).
